Experimental data published in patent publication US20020146750A1 (published 2002).
Substitutions are numbered along the chain they refer to.

Columns and labels:
[1] = molecular target: T1, MUC1 15-mer Ac-PDTRPAPGSTAPPAL-NH2; experiment: SPR (BIAcore 2000), 1:1 Langmuir at steady state, 50 RU peptide; 15-mer surface; Fab
T1 construct: coated on a biotin chip
T1 peptide: Ac-PDTRPAPGSTAPPAL-NH2
Experimental: (§1) The selected PH1-IgG1 and the Fab PH1 antibodies were evaluated for their binding characteristics by surface plasmon resonance on a BIAcore 2000 apparatus (BIAcore AB, Uppsala, Sweden). A biotin chip was coated with a MUC1 15-mer, containing the minimal PH1 epitope, PAP (Ac-PDTRPAPGSTAPPAL-NH₂ (SEQ ID NO:40) (see Example 2, above), 50 RU and 320 RU) and 60-mer (NH₂-([…])₃-COOH (SEQ ID NO:8) (von Mensdorff-Pouilly et al., Tumor Biol., 19: 186-195 (1998), 50 RU) in HBS-EP buffer (Pharmacia) a surface, blocked with biotin (15 RU), was used as a negative control. The Fab PH1 and PH1-IgG1 were injected in HBS-EP buffer. To minimize rebinding of the antigen binding molecules, a speed of 30 μl/sec was used. Affinity calculation was performed with computer programs provided by BIAcore (BIAEvaluation-version3, BIACore AB). […] The affinity for the PH1 Fab antibody was calculated according to a 1:1 Langmuir stoichiometry at steady state (Chi²: 50.6). Because of the two binding places on the PH1-IgG1, the avidity was calculated as an apparent avidity constant using 1:1 Langmuir determination with mass transfer limitation (Chi²: 42).
(§2) The affinity of the antibody was determined using BIAcore. Affinities of the Fab PH1 were calculated to be an average of 1.4 μM for binding to the 15-mer and 60-mer MUC1 peptide antigen coated surfaces.

[2] = molecular target: T1, MUC1 15-mer Ac-PDTRPAPGSTAPPAL-NH2; experiment: SPR (BIAcore 2000), apparent avidity constant, 1:1 Langmuir with mass transfer limitation, low density surface; 15-mer, low density surface; IgG1 avidity
Experimental: as §1, §2

[3] = molecular target: T1, MUC1 15-mer Ac-PDTRPAPGSTAPPAL-NH2; experiment: SPR (BIAcore) Kd assay on MUC1 15-mer
Experimental: (§3) The selected PH1 and the affinity-matured antibodies were evaluated for affinity by surface plasmon resonance (SPR) on a BIAcore 2000 apparatus (BIAcore AB, Uppsala, Sweden). Channels of a biotin chip were coated with a MUC1 15-mer, containing the minimal PH1 epitope, PAP, (Ac-PDTRPAPGSTAPPAL-NH₂, (SEQ ID NO:40) 50 RU or 320 RU) or a 60-mer (NH₂-([…])₃-COOH (i.e., containing three copies of SEQ ID NO:8 (von Mensdorff-Pouilly et al., Tumor Biol., 19: 186-195 (1998), 50 RU) in HBS-EP buffer (Pharmacia). One surface was blocked with biotin (15 RU) and used as a negative control. The antibodies were injected in HBS-EP buffer. To minimize rebinding of the antigen binding fragments, the flow speed was 30 μl/sec. Affinity calculation was performed with the BIA-evaluation software provided by the BIAcore. The affinities of the Fabs were calculated according to a 1:1 stoichiometry at steady state.
(§4) The CDR3 variants were extensively tested in BIAcore for the kinetics of the MUC1 peptide interaction. […] Using this off-rate screening with Fabs in the periplasmic extract of E. coli cultures, the clones in Table 9 as well as many more were screened for improvement in off-rate. […] To get accurate measurements, a Kd assay on the BIAcore was used with the MUC1 15-mer (there was no difference in the kinetics of interaction when the MUC1 60-mer was used, data not shown). […]

[4] = molecular target: T2, MUC1 60-mer peptide NH2-(…)3-COOH (biotinylated in the ELISAs and selections); experiment: ELISA, soluble Fab, biotinylated MUC1 60-mer; relative signal
T2 construct: also called biotinylated MUC1 60-mer
Experimental: as §3, with “Soluble Fabs were produced as described (Roovers et al., Br. J. Cancer, 78: 1407-16 (1998)). ELISAs were performed as described by Henderikx et al. (Cancer Res., 58: 4324-4332 (1998)), except the biotinylated MUC1 60-mer was used. The selected” for “The selected”

[5] = molecular target: T2, MUC1 60-mer peptide NH2-(…)3-COOH; experiment: phage ELISA on MUC1 antigen (biotinylated MUC1 60-mer)
[6] = molecular target: T2, MUC1 60-mer peptide NH2-(…)3-COOH; experiment: SPR (BIAcore), MUC1 60-mer peptide antigen; the 3.5-fold end is tied to 5C8 by paragraph 206; best variant, 5C8; Fab on MUC1 peptide chip
Experimental: as §3, §4

B1: PH1 Fab antibody (Fab, V domains shown)
VH: QVQLVQSGGGLVQPGGSLRLSCAASGFTFRSNAMGWVRQAPGKGLEWVSGISGSGGSTYYADSVKGRFTISRDNSKNTLYLQMNSLRAEDTAVYYCAKHTGGGVWDPIDYWGQGTLVTVSS
VL: EIVLTQSPLSLPVTPGEPASISCRSSQSLLHSNGYTYLDWYLQKPGQSPQLLIYSGSHRASGVPDRFSGSVSGTDFTLRISRVEAEDVGVYYCMQGLQSPFTFGPGTKVDIKR
notes: Human Fab from a naive phage library; also called Fab PH1; WT-PH1
- Kd [1]: 1400 nM

B2: PH1-IgG1 (antibody, V domains shown)
VH: B1 VH
VL: B1 VL
notes: Fully human gamma-1/kappa IgG1 from CHO-K1 clone 7F; FITC-labeled or biotinylated in some assays; also called recombinant human MUC1-specific IgG1; PH1-IgG1-FITC
- Kd [2]: 8.3 nM

B3: 7F9 (Fab, V domains shown)
VH: B1 VH with D109G
VL: B1 VL
notes: PH1 Fab variant; also called clone 7F9
- fold improvement of affinity over wild type PH1 Fab [3]: < 2 fold
- binding result [4]: binds

B4: clone 21 (unselected SPIKE library) (Fab, V domains shown)
VH: B1 VH with K98N, H99Q
VL: B1 VL
- ELISA OD450 [5]: 0.108 OD450

B5: clone 22 (unselected SPIKE library) (Fab, V domains shown)
VH: B1 VH with K98R, D109Y
VL: B1 VL
- ELISA OD450 [5]: 0.663 OD450

B6: clone 25 (unselected SPIKE library) (Fab, V domains shown)
VH: B1 VH with G102V, D106H, D109Y
VL: B1 VL
- ELISA OD450 [5]: 0.315 OD450

B7: 11F9 (Fab, V domains shown)
VH: B1 VH with A97T, D109N
VL: B1 VL
notes: PH1 Fab variant
- binding result [4]: binds

B8: 11G9 (Fab, V domains shown)
VH: B1 VH with D109G
VL: B1 VL
notes: PH1 Fab variant
- binding result [4]: binds

B9: clone 23 (unselected SPIKE library) (Fab, V domains shown)
VH: B1 VH with H99P, V104A
VL: B1 VL
- ELISA OD450 [5]: 0.373 OD450

B10: 5C8 (Fab, V domains shown)
VH: B1 VH with G102R, D109G
VL: B1 VL
notes: PH1 Fab variant; also called clone 5C8
- fold improvement of Kd over wild type PH1 Fab [3]: 3.5 fold
- Kd [6]: ~400 nM

B11: clone 20 (unselected SPIKE library) (Fab, V domains shown)
VH: B1 VH with K98S, G103R, V104G
VL: B1 VL
- ELISA OD450 [5]: 0.109 OD450
